Source: the RNAGym collection of RNA variant scans (doi:10.7554/elife.80360)

B1: Hammerhead Ribozyme (parent)
chain: ACCGGAUGUGCUUUCCGGUCUGAUGAGUCCGUGAGGACGAAACAG

Variants of: B1
Assay: self-cleavage, relative activity (ratio to wild type); higher = more cleavage; co-transcriptional

Variant | self-cleavage
ACCGGAUGUGCUUUCCGGUCUGAUGAGAACGUGAGGACGAAACAG [U28A C29A] | 0.682
ACCGGAUGUGCUUUCCGGUCUGAUGAUUCCGUGAGGACGAAAGAG [G27U C43G] | 0.268
ACCGGAUGUGCUUUCCGGUCUGAUGAUUCCGUGAGGACGAAAUAG [G27U C43U] | 0.366
ACCGGAUGUGCUUUCCGGUCUGAUGAUUCCGUGAGGACGAAAAAG [G27U C43A] | 0.374
ACCGGAUGUGCUUUCCGGUCUGAUGAGACCGUGAGGACGAAACAU [U28A G45U] | 0.496
ACCGGAUGUGCUUUCCGGUCUGAUGAGACCGUGAGGACGAAACAA [U28A G45A] | 0.436
ACCGGAUGUGCUUUCCGGUCUGAUGAGACCGUGAGGACGAAACAC [U28A G45C] | 0.365
ACCGGAUGUGCUUUCCGGUCUGAUGAGCCCGUGAGGACGAAACAG [U28C] | 1.08
ACCGGAUGUGCUUUCCGGUCUGAUGAGACCGUGAGGACGAAACAG [U28A] | 0.822
ACCGGAUGUGCUUUCCGGUCUGAUGAGACCGGGAGGACGAAACAG [U28A U32G] | 0.306
ACCGGAUGUGCUUUCCGGUCUGAUGAGACCGAGAGGACGAAACAG [U28A U32A] | 0.824
ACCGGAUGUGCUUUCCGGUCUGAUGAGACCGCGAGGACGAAACAG [U28A U32C] | 0.626
ACCGGAUGUGCUUUCCGGUCUGAUGAGACCGUGAGGAGGAAACAG [U28A C38G] | 0.521
ACCGGAUGUGCUUUCCGGUCUGAUGAGACCGUGAGGAAGAAACAG [U28A C38A] | 0.726
ACCGGAUGUGCUUUCCGGUCUGAUGAGACCGUGAGGAUGAAACAG [U28A C38U] | 0.703
ACCGGAUGUGCUUUCCGGUCUGAUGAUUUCGUGAGGACGAAACAG [G27U C29U] | 0.316
ACCGGAUGUGCUUUCCGGUCUGAUGAUUACGUGAGGACGAAACAG [G27U C29A] | 0.312
ACCGGAUGUGCUUUCCGGUCUGAUGAUUGCGUGAGGACGAAACAG [G27U C29G] | 0.366
ACCGGAUGUGCUUUCCGGUCUGAUGAUUCCGUGAGGACGAUACAG [G27U A41U] | 0.347

Variant | self-cleavage
ACCGGAUGUGCUUUCCGGUCUGAUGAUUCCGUGAGGACGACACAG [G27U A41C] | 0.328
ACCGGAUGUGCUUUCCGGUCUGAUGAUUCCGUGAGGACGAGACAG [G27U A41G] | 0.312
ACCGGAUGUGCUUUCCGGUCUGAUGAUUCCGUGUGGACGAAACAG [G27U A34U] | 0.382
ACCGGAUGUGCUUUCCGGUCUGAUGAUUCCGUGGGGACGAAACAG [G27U A34G] | 0.373
ACCGGAUGUGCUUUCCGGUCUGAUGAUUCCGUGCGGACGAAACAG [G27U A34C] | 0.32
ACCGGAUGUGCUUUCCGGUCUGAUGACCCCGUGAGGACGAAACAG [G27C U28C] | 0.431
ACCGGAUGUGCUUUCCGGUCUGAUGACACCGUGAGGACGAAACAG [G27C U28A] | 0.508
ACCGGAUGUGCUUUCCGGUCUGAUGACGCCGUGAGGACGAAACAG [G27C U28G] | 0.389
ACCGGAUGUGCUUUCCGGUCUGAUGAGACCGUGAGGACGAAACUG [U28A A44U] | 0.402
ACCGGAUGUGCUUUCCGGUCUGAUGAGACCGUGAGGACGAAACCG [U28A A44C] | 0.38
ACCGGAUGUGCUUUCCGGUCUGAUGAGACCGUGAGGACGAAACGG [U28A A44G] | 0.596
ACCGGAUGUGCUUUCCGGUCUGAUGAGACCGUGAGGACGACACAG [U28A A41C] | 0.277
ACCGGAUGUGCUUUCCGGUCUGAUGAGACCGUGAGGACGAUACAG [U28A A41U] | 0.303
ACCGGAUGUGCUUUCCGGUCUGAUGAGACCGUGAGGACGAGACAG [U28A A41G] | 0.398
ACCGGAUGUGCUUUCCGGUCUGAUGAUUCCGUGAGGCCGAAACAG [G27U A37C] | 0.308
ACCGGAUGUGCUUUCCGGUCUGAUGAUUCCGUGAGGUCGAAACAG [G27U A37U] | 0.521
ACCGGAUGUGCUUUCCGGUCUGAUGAUUCCGUGAGGGCGAAACAG [G27U A37G] | 0.501
ACCGGAUGUGCUUUCCGGUCUGAUGAGACGGUGAGGACGAAACAG [U28A C30G] | 0.384
ACCGGAUGUGCUUUCCGGUCUGAUGAGACAGUGAGGACGAAACAG [U28A C30A] | 0.376

Variant | self-cleavage
ACCGGAUGUGCUUUCCGGUCUGAUGAGACUGUGAGGACGAAACAG [U28A C30U] | 0.562
ACCGGAUGUGCUUUCCGGUCUGAUGAUUCCGGGAGGACGAAACAG [G27U U32G] | 0.417
ACCGGAUGUGCUUUCCGGUCUGAUGAUUCCGCGAGGACGAAACAG [G27U U32C] | 0.495
ACCGGAUGUGCUUUCCGGUCUGAUGAUUCCGAGAGGACGAAACAG [G27U U32A] | 0.547
ACCGGAUGUGCUUUCCGGUCUGAUGAUUCCUUGAGGACGAAACAG [G27U G31U] | 0.474
ACCGGAUGUGCUUUCCGGUCUGAUGAUUCCCUGAGGACGAAACAG [G27U G31C] | 0.462
ACCGGAUGUGCUUUCCGGUCUGAUGAUUCCAUGAGGACGAAACAG [G27U G31A] | 0.529
ACCGGAUGUGCUUUCCGGUCUGAUGAGACCGUGAGGACGGAACAG [U28A A40G] | 0.394
ACCGGAUGUGCUUUCCGGUCUGAUGAGACCGUGAGGACGUAACAG [U28A A40U] | 0.41
ACCGGAUGUGCUUUCCGGUCUGAUGAGACCGUGAGGACGCAACAG [U28A A40C] | 0.352
ACCGGAUGUGCUUUCCGGUCUGAUGAUUCCGUGAGGACGAAUCAG [G27U A42U] | 0.315
ACCGGAUGUGCUUUCCGGUCUGAUGAUUCCGUGAGGACGAACCAG [G27U A42C] | 0.294
ACCGGAUGUGCUUUCCGGUCUGAUGAUUCCGUGAGGACGAAGCAG [G27U A42G] | 0.261
ACCGGAUGUGCUUUCCGGUCUGAUGAUUCCGUCAGGACGAAACAG [G27U G33C] | 0.484
ACCGGAUGUGCUUUCCGGUCUGAUGAUUCCGUAAGGACGAAACAG [G27U G33A] | 0.754
ACCGGAUGUGCUUUCCGGUCUGAUGAUUCCGUUAGGACGAAACAG [G27U G33U] | 0.535
ACCGGAUGUGCUUUCCGGUCUGAUGAUACCGUGAGGACGAAACAG [G27U U28A] | 0.552
ACCGGAUGUGCUUUCCGGUCUGAUGAUGCCGUGAGGACGAAACAG [G27U U28G] | 0.507
ACCGGAUGUGCUUUCCGGUCUGAUGAUCCCGUGAGGACGAAACAG [G27U U28C] | 0.38
